Earlier results, collected in patent US20100143424A1, “CASEIN NANOPARTICLE” (FUJIFILM CORPORATION, priority 2008, published 2010).

Conditions: casein derived from milk, Wako Pure Chemical Industries

Q: With casein as the substance, how does the isoelectric point read?
A: 4.3
